Values quoted from earlier work in patent US20070032640A1, “Cytokine receptor” (priority 2001, published 2007).
Positions count from the first letter of the chain named.

B1: C192: IL-6R with C192 mutated to alanine (protein, UniProt P08887 20-468, looked up, variant C192A)
Interleukin-6 receptor …: LAPRRCPAQEVARGVLTSLPGDSVTLTCPGVEPEDNATVHWVLRKPAAGSHPSRWAGMGRRLLLRSVQLHDSGNYSCYRAGRPAGTVHLLVDVPPEEPQLSCFRKSPLSNVVCEWGPRSTPSLTTKAVLLVRKFQNSPAEDFQEPCQYSQESQKFSCQLAVPEGDSSFYIVSMCVASSVGSKFSKTQTFQGAGILQPDPPANITVTAVARNPRWLSVTWQDPHSWNSSFYRLRFELRYRAERSKTFTTWMVKDLQHHCVIHDAWSGLRHVVQLRAQEEFGQGEWSEWSPEAMGTPWTESRSPPAENEVSTPMQALTTNKDDDNILFRDSANATSLPVQDSSSVPLPTFLVAGGSLAFGTLLCIAIVLRFKKTWKLRALKEGKTSMHPPYSLGQLVPERPRPTPVLVPLISPPVSPSSLGSDNTSSHNRPDARDPRSPYDISNTDYFFPR
B2: W214: IL-6R W-Q mutant at W214 (protein, UniProt P08887 20-468, looked up, variant W214Q)
Interleukin-6 receptor …: B1 Interleukin-6 receptor … with A192C, W214Q
B3: E278: IL-6R EF-AI double mutant at E278 and F279 (protein, UniProt P08887 20-468, looked up, variant E278A F279I)
Interleukin-6 receptor …: B1 Interleukin-6 receptor … with A192C, E278A, F279I
B4: D262: IL-6R D-G mutant at D262 (protein, UniProt P08887 20-468, looked up, variant D262G)
Interleukin-6 receptor …: B1 Interleukin-6 receptor … with A192C, D262G
B5: F-Y mutant: IL-6R F-Y mutant at F168 (protein, UniProt P08887 20-468, looked up, variant F168Y)
Interleukin-6 receptor …: B1 Interleukin-6 receptor … with F168Y, A192C
B6: H261: IL-6R H-I mutation at H261 (protein, UniProt P08887 20-468, looked up, variant H261I)
Interleukin-6 receptor …: B1 Interleukin-6 receptor … with A192C, H261I
B7: V259: IL-6R V-N mutant at V259 (protein, UniProt P08887 20-468, looked up, variant V259N)
Interleukin-6 receptor …: B1 Interleukin-6 receptor … with A192C, V259N
B8: I260: IL-6R I-D mutation at I260 (protein, UniProt P08887 20-468, looked up, variant I260D)
Interleukin-6 receptor …: B1 Interleukin-6 receptor … with A192C, I260D
B9: F134: IL-6R F-L mutation at F134 (protein, UniProt P08887 20-468, looked up, variant F134L)
Interleukin-6 receptor …: B1 Interleukin-6 receptor … with F134L, A192C
B10: P162: IL-6R PE-LQ double mutant at P162 and E163, loop L3 (protein, UniProt P08887 20-468, looked up, variant P162L E163Q)
Interleukin-6 receptor …: B1 Interleukin-6 receptor … with P162L, E163Q, A192C
B11: R231: IL-6R RL-SI double mutant at R231 and L232 (protein, UniProt P08887 20-468, looked up, variant R231S L232I)
Interleukin-6 receptor …: B1 Interleukin-6 receptor … with A192C, R231S, L232I

Experiments:
IL-6 = conditions: cited from earlier work; for Binding: IL-6 binding of IL-6R mutant, relative to wild type
gp130 signalling = conditions: cited from earlier work; for Signalling: gp130 signalling of IL-6R mutant, relative to wild type

Molecule | binding of IL-6 to IL-6R (in words) (IL-6; mutated to alanine) | signalling (in words) (gp130 signalling; mutated to alanine) | Binding (IL-6) [%] | Signalling (gp130 signalling)
B1 | slightly increased | slightly increased | – | –
B2 | – | – | 70 | >150%
B3 | – | – | 0 | –
B4 | – | – | 30 | <10%
B5 | – | – | – | mutant signals at 50%
B6 | – | – | 115 | 10%
B7 | – | – | 40 | 140%
B8 | – | – | 0 | –
B9 | – | – | >100 | 70%
B10 | – | – | <10 | –
B11 | – | – | 0 | –
